# In the supplement of paper PMC12764529:
# ± gives the half width of the 95% confidence interval.
# Columns and labels:
# [1] = folding stability dG unfold from trypsin proteolysis; higher = more stable
# Method in brief: (§1)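 K50 was inferred by Bayesian fitting of sequencing counts obtained after protease digestion of designed mini-proteins. Unfolding free energy was derived by comparison with a sequence-predicted unfolded-state K50 and a shared folded-state K50, for each protease or both combined. The mini-proteins were under 80 residues, had no cysteine, were carried in a PA-tagged cDNA display construct, and were kept only if AlphaFold2 dimer inter-PAE exceeded 15.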
# [2] = folding stability dG unfold from chymotrypsin proteolysis; higher = more stable
# Method in brief: as §1
# [3] = folding stability dG unfold (combined trypsin and chymotrypsin); higher = more stable
# Method in brief: as §1
Sequence,folding stability dG unfold [1],folding stability dG unfold [2],folding stability dG unfold [3]
SAGFQIERKRDPDGKYEVEIKFPHPDGHPMRVKIPINPKEGKIKIDEIESTNPGHKQRMEELARWFLKASAG [r5_266_TrROS],-0.4 ± 0.29 kcal/mol,-0.526 ± 0.38 kcal/mol,-0.44 ± 0.16 kcal/mol
SMKIEFLDVKEDGTIVIRLTLLRPDGKPPTKEEAAERAKEIAEILKPYFPDAEFTIEFDPESGEATIVIDSA [r9_485_TrMRF],4.66 ± 0.57 kcal/mol,4.7 ± 0.15 kcal/mol,4.83 ± 0.33 kcal/mol
SAGGSASSMPVTLTLLLTRPDGTPLTLPFEAETLEEAIERGTALAQELIAELGDPNMKITGLEVVPSAGGSA [r15_698_JUSTAS],0.904 ± 0.067 kcal/mol,1.44 ± 0.092 kcal/mol,1.22 ± 0.1 kcal/mol
SAKFRVTEIHPNGNNFEIRIERYDPNGEKKKLPIPVNADNMQIDEVDGDKITIYFPNNGREITLPLEDLSAG [r14_947_TrROS],-0.594 ± 0.34 kcal/mol,-0.114 ± 0.42 kcal/mol,-0.152 ± 0.36 kcal/mol
SAGGSDKLYIRNPDHTIEIDEVKEPPDGEKYVRIRHEPPDGKEKEHEFPPDELADKFGLPPDNIEISAGGSA [r2_262_TrROS],0.32 ± 0.35 kcal/mol,-0.217 ± 0.79 kcal/mol,-0.101 ± 0.56 kcal/mol
SAKKLIIKVEVETFDEETGELKTEERTIEADTLEDALAEIERELPPGARVRIEVFDADGKLVETIEIELSAG [r14_234_TrROS_Hall],4.41 ± 0.23 kcal/mol,3.1 ± 0.091 kcal/mol,3.92 ± 0.15 kcal/mol
SVIIYMPWDNIPNMLRQLKALAKNGQKPVTIYMPVPEDWRRELREWLDDYGITVEPHPDNDWYKIEIEPKSA [r9_600_TrROS],2.54 ± 0.069 kcal/mol,3.318 ± 0.0095 kcal/mol,3.09 ± 0.077 kcal/mol
SAGGSAGGSATIRIPWDKIKDALEEHDMTVTNIEPNPGGNPWVEIEVNGTPEQREKIQEALKSAGGSAGGSA [r18_175_TrROS],0.369 ± 0.045 kcal/mol,0.255 ± 0.15 kcal/mol,0.313 ± 0.12 kcal/mol
SRIKITVKPKPDGNFYIKIWFPNNGKPFIFPIKNPDAMDEARDDPGQTIEVPEDYLRSLFPDNFTDVEIVSA [r9_390_TrROS],1.31 ± 0.015 kcal/mol,1.16 ± 0.12 kcal/mol,1.25 ± 0.064 kcal/mol
SAGGGLEEFARRLAEELARLLGGPNVPFELEGVVVFGFRLRPDGTPEPTTSRPVVVRVRFETPGGDPSAGGS [r16_156_TrMRF],2.7 ± 0.11 kcal/mol,4.09 ± 0.044 kcal/mol,3.58 ± 0.1 kcal/mol
SAGGMEIKIEKEGNKIKITIKNENGEIEEFEITLKDGKKYRIIIDKDNPNTIYIVDEKTGKTIVLKASAGGS [r16_198_TrROS_Hall],4.6 ± 0.64 kcal/mol,4.55 ± 0.11 kcal/mol,4.71 ± 0.3 kcal/mol
SAMVVIKPEGDKIVVEITLPDGSTKVIELPEVEKIEIKGDTLIITDPKTGKKIIPENTTVSNPKIEPAKSAG [r14_83_JUSTAS],-0.167 ± 0.065 kcal/mol,-0.0623 ± 0.064 kcal/mol,0.0698 ± 0.14 kcal/mol
SAGGSAGGSAKIFARAPPGQWYRITVKYKGGNGDKKEHTATIPPNNPPPDIEDVEIEPIPPGSAGGSAGGSA [r18_223_TrROS],3.55 ± 0.14 kcal/mol,3.15 ± 0.066 kcal/mol,3.12 ± 0.25 kcal/mol
SAGGSAGGSAKEFVAKVITPDGKPFTIPFGGETEEEAIEKLKEAIKKAFPEYKGVKIELEEKSAGGSAGGSA [r18_434_TrMRF],0.873 ± 0.057 kcal/mol,0.626 ± 0.27 kcal/mol,0.791 ± 0.2 kcal/mol
SAGMARIIPNPPVIEVVRKDGSKLVIPPEEIEELRAALEAKGGPYTPEEIAEAIRKLFPDYEVSIVPASAGG [r19_46_TrMRF],-0.284 ± 0.38 kcal/mol,-0.0899 ± 0.17 kcal/mol,-0.109 ± 0.22 kcal/mol
SAGGSAGGSEPVVIKVTVTNENGEKRTITLPEIEVEPGETIEEIAAALAAEPGVKEVKVEVVPSAGGSAGGS [r12_199_TrROS_Hall],0.702 ± 0.022 kcal/mol,0.444 ± 0.039 kcal/mol,0.605 ± 0.069 kcal/mol
SAATLPPGTKVLTLTVTVRVPPGVSVEDLAAALAAELRRRLGPGAKITVTVTYDPETDTLTVTVTVVLPPSA [r9_657_TrROS_Hall],3.53 ± 0.091 kcal/mol,4.66 ± 0.078 kcal/mol,4.38 ± 0.081 kcal/mol
SAPPETVEVEEVAEFELADGSKVTVAKVKLPNGETLVVVTVYNKDGEPVATFVVREGDPDALAEALKALSSA [r9_1069_TrROS_Hall],3.9 ± 0.3 kcal/mol,4.56 ± 0.095 kcal/mol,4.51 ± 0.13 kcal/mol
SAGGSAGGSAGMTYVYPGPDGKEYLAEVDPNIPGAEVTVTPPDTGETVTVPLSQVTEVPPSAGGSAGGSAGG [r11_822_JUSTAS],0.56 ± 0.05 kcal/mol,-0.449 ± 0.18 kcal/mol,0.222 ± 0.063 kcal/mol
SAGGMKIKIEVIDPDGKKRVIEIDASTPEEIKAALDALPPGAVVRIVVPSPELREALKEAGVDEVVELSAGG [r13_476_TrROS_Hall],4.37 ± 0.23 kcal/mol,2.77 ± 0.069 kcal/mol,3.87 ± 0.2 kcal/mol
SAGMLRELLDNPDVKRLEIVIFIPEEDLSEEDRERARERARELAERLRELLRERGYDVEIEVRIVRLPPSAG [r5_408_TrROS_Hall],3.5 ± 0.11 kcal/mol,3.22 ± 0.062 kcal/mol,3.39 ± 0.088 kcal/mol
